Patent publication US20200277392A1 (Hoffmann-La Roche, published 2020)
Where a chain is given by its changes, count along the chain named. Numbers in names are those of the source.

B1: 49B4/TnC 18D4 P329GLALA 4 + 2 (ID8035) (bispecific antibody, human IgG1, kappa, L234A L235A)
heavy: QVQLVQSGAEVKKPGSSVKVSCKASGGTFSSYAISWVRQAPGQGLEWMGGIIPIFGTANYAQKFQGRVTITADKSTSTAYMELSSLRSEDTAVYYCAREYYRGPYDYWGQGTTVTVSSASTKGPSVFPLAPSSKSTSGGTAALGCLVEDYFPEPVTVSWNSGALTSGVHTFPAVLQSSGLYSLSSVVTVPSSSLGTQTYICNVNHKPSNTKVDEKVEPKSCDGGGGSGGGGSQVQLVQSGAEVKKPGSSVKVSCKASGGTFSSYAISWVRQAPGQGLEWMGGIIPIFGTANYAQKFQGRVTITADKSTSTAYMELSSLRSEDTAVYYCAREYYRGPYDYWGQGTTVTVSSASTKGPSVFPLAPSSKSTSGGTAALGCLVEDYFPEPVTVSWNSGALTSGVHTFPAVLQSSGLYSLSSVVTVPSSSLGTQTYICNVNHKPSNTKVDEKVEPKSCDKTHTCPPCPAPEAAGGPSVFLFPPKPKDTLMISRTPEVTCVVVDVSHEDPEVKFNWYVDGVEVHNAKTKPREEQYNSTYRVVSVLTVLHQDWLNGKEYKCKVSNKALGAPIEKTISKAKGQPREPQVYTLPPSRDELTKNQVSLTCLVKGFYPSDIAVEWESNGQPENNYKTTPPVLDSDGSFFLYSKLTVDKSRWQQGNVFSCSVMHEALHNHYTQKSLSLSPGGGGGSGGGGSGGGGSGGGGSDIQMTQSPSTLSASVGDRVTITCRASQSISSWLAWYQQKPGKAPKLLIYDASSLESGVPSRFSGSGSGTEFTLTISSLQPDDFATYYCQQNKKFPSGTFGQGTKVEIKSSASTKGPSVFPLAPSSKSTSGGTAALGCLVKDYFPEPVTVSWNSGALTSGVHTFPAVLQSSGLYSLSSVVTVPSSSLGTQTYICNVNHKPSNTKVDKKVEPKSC
light 1: DIQMTQSPSTLSASVGDRVTITCRASQSISSWLAWYQQKPGKAPKLLIYDASSLESGVPSRFSGSGSGTEFTLTISSLQPDDFATYYCQQYSSQPYTFGQGTKVEIKRTVAAPSVFIFPPSDRKLKSGTASVVCLLNNFYPREAKVQWKVDNALQSGNSQESVTEQDSKDSTYSLSSTLTLSKADYEKHKVYACEVTHQGLSSPVTKSFNRGEC
light 2: QVQLVQSGAEVKKPGSSVKVSCKASGGTFSSYAISWVRQAPGQGLEWMGGIIPIFGTANYAQKFQGRVTITADKSTSTAYMELSSLRSEDTAVYYCAKGNFYGGLDYWGQGTTVTVSSASVAAPSVFIFPPSDEQLKSGTASVVCLLNNFYPREAKVQWKVDNALQSGNSQESVTEQDSKDSTYSLSSTLTLSKADYEKHKVYACEVTHQGLSSPVTKSFNRGEC
notes: huIgG1 P329G LALA; also called 49B4/18D4 4 + 2; 4 + 2 TnC (18D4)
B2: 49B4/TnC 18D4 P329GLALA 2 + 2 (ID7216) (bispecific antibody, human IgG1, kappa, L234A L235A)
heavy: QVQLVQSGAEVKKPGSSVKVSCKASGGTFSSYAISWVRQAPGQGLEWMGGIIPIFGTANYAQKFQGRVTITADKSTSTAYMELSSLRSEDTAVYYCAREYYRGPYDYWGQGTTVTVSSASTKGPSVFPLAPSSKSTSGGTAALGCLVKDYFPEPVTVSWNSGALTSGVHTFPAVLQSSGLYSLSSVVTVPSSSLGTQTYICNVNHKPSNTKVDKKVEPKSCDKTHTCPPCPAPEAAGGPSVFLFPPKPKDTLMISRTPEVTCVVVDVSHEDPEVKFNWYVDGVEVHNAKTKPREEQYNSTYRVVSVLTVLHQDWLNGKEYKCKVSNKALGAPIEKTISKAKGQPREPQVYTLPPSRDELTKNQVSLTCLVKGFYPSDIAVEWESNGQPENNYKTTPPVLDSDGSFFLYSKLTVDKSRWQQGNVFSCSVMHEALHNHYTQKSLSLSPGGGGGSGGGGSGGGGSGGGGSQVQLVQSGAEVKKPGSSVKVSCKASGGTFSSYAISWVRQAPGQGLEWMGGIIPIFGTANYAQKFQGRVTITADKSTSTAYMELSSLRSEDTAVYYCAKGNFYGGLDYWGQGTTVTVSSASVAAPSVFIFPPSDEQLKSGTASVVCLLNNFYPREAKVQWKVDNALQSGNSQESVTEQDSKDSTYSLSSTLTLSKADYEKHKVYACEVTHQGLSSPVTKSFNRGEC
light 1: B1 light 1 with R123E, K124Q
light 2: DIQMTQSPSTLSASVGDRVTITCRASQSISSWLAWYQQKPGKAPKLLIYDASSLESGVPSRFSGSGSGTEFTLTISSLQPDDFATYYCQQNKKFPSGTFGQGTKVEIKSSASTKGPSVFPLAPSSKSTSGGTAALGCLVKDYFPEPVTVSWNSGALTSGVHTFPAVLQSSGLYSLSSVVTVPSSSLGTQTYICNVNHKPSNTKVDKKVEPKSCD
notes: huIgG1 P329G LALA; 49B4 VHCH1-Fc-(G4S)4-18D4 VHCL heavy chain, 49B4 VLCL light chain, 18D4 VLCH1 crossed light chain; also called 2 + 2 (49B4/18D4); 49B4/18D4 2 + 2

Columns and labels:
human OX40 on cells [1] = biological target: T1, human OX40 on cells (human, UniProt P43489 29-277); assay: flow cytometry on activated human PBMC, gated on CD8+ T cells; FITC anti-human IgG secondary; MFI baseline corrected
T1 construct: also called CD134; OX40+ Cells
T1 sequence: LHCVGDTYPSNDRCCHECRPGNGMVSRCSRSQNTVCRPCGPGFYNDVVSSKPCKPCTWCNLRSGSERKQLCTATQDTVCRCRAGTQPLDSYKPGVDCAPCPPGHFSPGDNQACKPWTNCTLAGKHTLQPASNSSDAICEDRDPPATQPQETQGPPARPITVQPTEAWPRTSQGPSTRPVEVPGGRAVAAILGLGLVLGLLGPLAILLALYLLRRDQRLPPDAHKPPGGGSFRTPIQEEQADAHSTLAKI
Protocol: (§1) For labeling, cells were harvested, washed with pre-warmed (37° C.) DPBS and adjusted to a cell density of 1×10⁷ cells/mL in DPBS. eFluor670 cell proliferation dye (eBioscience, Cat.-No. 65-0840-85) was added to the suspension of naïve human PBMC at a final concentration of […] and a final cell density of 0.5×10⁷ cells/mL in DPBS. Cells were then incubated for 10 min at room temperature in the dark. To stop the labeling reaction, 4 mL heat inactivated FBS was added and cells were washed three times with T cell medium. A 2:1 mixture of 1×10⁵ resting eFluor670 labeled human PBMC and 0.5×10⁵ unlabeled activated human PBMC were then added to each well of round-bottomed suspension cell 96-well plates (Greiner bio-one, cellstar, Cat. No. 650185).
Cells were stained for 120 minutes at 4° C. in the dark in 50 μL/well 4° C. FACS buffer containing different amounts of the indicated antigen binding molecules. After three washes with 4° C. FACS buffer, cells were stained for 45 minutes at 4° C. in the dark in 25 μL/well 4° C. FACS buffer containing a mixture of fluorescently labeled anti-human CD4 (clone RPA-T4, mouse IgG1 k, BioLegend, Cat.-No. 300532), anti-human CD8 (clone RPa-T8, mouse IgGlk, BioLegend, Cat.-No. 3010441) and Fluorescein isothiocyanate (FITC)-conjugated AffiniPure anti-human IgG Fcγ-fragment-specific goat IgG F(ab′)₂ fragment (Jackson ImmunoResearch, Cat.-No. 109-096-098). […]

human OX40 on cells [2] = biological target: T1, human OX40 on cells; assay: flow cytometry on OX40+ cells (activated human PBMC)
Protocol: as §1
Cells were stained for 120 minutes at 4° C. in the dark in 50 μL/well 4° C. FACS buffer containing different amounts of the indicated antigen binding molecules. After three washes with 4° C. FACS buffer, cells were stained for 45 minutes at 4° C. in the dark in 25 μL/well 4° C. FACS buffer containing a mixture of fluorescently labeled anti-human CD4 (clone RPA-T4, mouse IgG1 k, BioLegend, Cat.-No. 300532), anti-human CD8 (clone RPa-T8, mouse IgGlk, BioLegend, Cat.-No. 3010441) and Fluorescein isothiocyanate (FITC)-conjugated AffiniPure anti-human IgG Fcγ-fragment-specific goat IgG F(ab′)₂ fragment (Jackson ImmunoResearch, Cat.-No. 109-096-098).
Cells were then resuspended in […] FACS-buffer containing 0.2 μg/mL DAPI (Santa Cruz Biotec, Cat. No. Sc-3598) and acquired the same day using 5-laser LSR-Fortessa (BD Bioscience with DIVA software).

[3] = biological target: T2, mouse TnC with C-terminal Avi- and His-tags (mouse, biotinylated at the C-terminal Avi-tag); assay: SPR Biacore T200, biotinylated TnC on SA chip, bispecific as analyte, 1:1 fit, apparent KD (bivalent binding)
T2 construct: the N-terminal fn5 and C-terminal fn6 parts look like the human ones; also called muTnC; murine TnC
T2 chain: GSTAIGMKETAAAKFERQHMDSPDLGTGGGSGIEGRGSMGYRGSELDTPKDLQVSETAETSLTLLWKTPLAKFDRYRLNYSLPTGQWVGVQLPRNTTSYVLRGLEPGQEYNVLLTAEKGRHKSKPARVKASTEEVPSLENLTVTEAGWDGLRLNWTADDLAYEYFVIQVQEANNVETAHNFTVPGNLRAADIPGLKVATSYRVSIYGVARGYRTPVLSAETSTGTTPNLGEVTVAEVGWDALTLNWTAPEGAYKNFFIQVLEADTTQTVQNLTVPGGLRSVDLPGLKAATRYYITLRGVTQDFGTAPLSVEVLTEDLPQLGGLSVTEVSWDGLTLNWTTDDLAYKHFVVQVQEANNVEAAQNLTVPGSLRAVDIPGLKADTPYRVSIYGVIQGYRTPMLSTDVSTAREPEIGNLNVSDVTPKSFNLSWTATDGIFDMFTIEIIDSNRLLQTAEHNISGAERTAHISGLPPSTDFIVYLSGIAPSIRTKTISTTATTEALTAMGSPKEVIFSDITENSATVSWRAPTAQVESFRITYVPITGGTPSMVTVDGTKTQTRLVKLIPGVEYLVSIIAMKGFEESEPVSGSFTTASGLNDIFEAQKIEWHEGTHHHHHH
Protocol: (§2) The capacity of the bispecific constructs to bind human, murine and cynomolgus TnC was analysed by surface plasmon resonance (SPR). All SPR experiments were performed on a Biacore T200 at 25° C. with HBS-EP as running buffer (0.01 M HEPES pH 7.4, 0.15 M NaCl, 3 mM EDTA, 0.005% Surfactant P20, Biacore, Freiburg/Germany).
(§3) Biotinylated human, murine or cynomolgus TnC molecules were immobilised on a SA chip to reach an immobilization level of 10 resonance units (RU).
(§4) Following immobilisation, the bispecific molecules or control molecules were immediately passed over the chip surface at concentrations ranging from 0.05-50 nM, at a flow rate of 30 μL/minute for 120 seconds and a dissociation phase of 180 seconds. The surface was regenerated using 10 mM glycine pH2.1. Bulk refractive index differences were corrected for by subtracting the response obtained in a reference flow cell, where no TnC was immobilized. Affinity/Avidity was determined under these experimental conditions using the Langmuir 1:1 curve fitting. For bivalent binding the same 1:1 fitting was used leading to an apparent KD value.

[4] = biological target: T3, cynomolgus TnC with C-terminal Avi- and His-tags (cynomolgus, biotinylated at the C-terminal Avi-tag); assay: as above
T3 construct: also called cynoTnC; cyno TnC
T3 chain: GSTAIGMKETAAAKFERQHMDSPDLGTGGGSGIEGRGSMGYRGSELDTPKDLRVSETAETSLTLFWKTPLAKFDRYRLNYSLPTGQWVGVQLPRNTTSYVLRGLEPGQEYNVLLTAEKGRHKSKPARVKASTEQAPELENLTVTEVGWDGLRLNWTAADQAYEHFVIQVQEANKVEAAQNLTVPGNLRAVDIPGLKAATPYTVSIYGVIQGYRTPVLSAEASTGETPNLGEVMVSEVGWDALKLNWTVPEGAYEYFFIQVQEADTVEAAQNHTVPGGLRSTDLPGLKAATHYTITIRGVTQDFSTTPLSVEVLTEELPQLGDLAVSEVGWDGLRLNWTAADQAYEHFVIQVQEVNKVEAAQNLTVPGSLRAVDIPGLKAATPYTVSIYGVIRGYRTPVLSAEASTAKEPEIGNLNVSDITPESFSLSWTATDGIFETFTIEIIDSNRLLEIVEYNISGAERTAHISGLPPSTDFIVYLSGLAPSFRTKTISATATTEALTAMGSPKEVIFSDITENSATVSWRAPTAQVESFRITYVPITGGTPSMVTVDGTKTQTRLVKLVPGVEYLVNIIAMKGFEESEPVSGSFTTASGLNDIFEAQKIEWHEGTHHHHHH
Protocol: as §2, §3, §4

[5] = biological target: T4, human OX40 Fc(kih), monomeric Fc-linked human OX40 antigen ECD (human, UniProt P0DOX5 223-449 = IgG part); assay: SPR (Biacore T200, 25 °C): bispecific held on immobilised human TnC; human OX40 Fc(kih) at 250 nM injected for 90 s as analyte 2
T4 construct: Heterodimer of one OX40 ECD (aa 29-214)-AcTEV-Fc knob-Avi chain and one Fc hole chain; Biotinylated at the Avi tag for phage selection and ELISA; also called recombinant OX40 Fc (kih) receptor; biotinylated human OX40
Protocol: All SPR experiments were performed on a Biacore T200 at 25° C. with HBS-EP as running buffer (0.01 M HEPES pH 7.4, 0.15 M NaCl, 3 mM EDTA, 0.005% Surfactant P20, Biacore, Freiburg/Germany).
Biotinylated human TnC was directly coupled to a flow cell of a streptavidin (SA) sensor chip. Immobilization levels up to 1000 resonance units (RU) were used.
Bulk refractive index differences were corrected for by subtracting the response obtained in a reference flow cell, where no protein was immobilized.

Binder	EC50 (read off the curve) (human OX40 on cells [1]) [pM]	EC50 (human OX40 on cells [2]) [pM]	Kd [3] [pM]	Kd [4] [pM]	binding result [5]
B1	~100	80	650	400	binds
B2	–	6590	300	280	binds
